From IntAct's records for PubMed 21376235

B1: RNA polymerase II-associated protein 1 (Saccharomyces cerevisiae), P38351 (parent)
chain: MSKKQEYIAPIKYQNSLPVPQLPPKLLVYPESPETNADSSQLINSLYIKTNVTNLIQQDEDLGMPVDLMKFPGLLNKLDSKLLYGFDNVKLDKDDRILLRDPRIDRLTKTDISKVTFLRRTEYVSNTIAAHDNTSLKRKRRLDDGDSDDENLDVNHIISRVEGTFNKTDKWQHPVKKGVKMVKKWDLLPDTASMDQVYFILKFMGSASLDTKEKKSLNTGIFRPVELEEDEWISMYATDHKDSAILENELEKGMDEMDDDSHEGKIYKFKRIRDYDMKQVAEKPMTELAIRLNDKDGIAYYKPLRSKIELRRRRVNDIIKPLVKEHDIDQLNVTLRNPSTKEANIRDKLRMKFDPINFATVDEEDDEDEEQPEDVKKESEGDSKTEGSEQEGENEKDEEIKQEKENEQDEENKQDENRAADTPETSDAVHTEQKPEEEKETLQEE
partner: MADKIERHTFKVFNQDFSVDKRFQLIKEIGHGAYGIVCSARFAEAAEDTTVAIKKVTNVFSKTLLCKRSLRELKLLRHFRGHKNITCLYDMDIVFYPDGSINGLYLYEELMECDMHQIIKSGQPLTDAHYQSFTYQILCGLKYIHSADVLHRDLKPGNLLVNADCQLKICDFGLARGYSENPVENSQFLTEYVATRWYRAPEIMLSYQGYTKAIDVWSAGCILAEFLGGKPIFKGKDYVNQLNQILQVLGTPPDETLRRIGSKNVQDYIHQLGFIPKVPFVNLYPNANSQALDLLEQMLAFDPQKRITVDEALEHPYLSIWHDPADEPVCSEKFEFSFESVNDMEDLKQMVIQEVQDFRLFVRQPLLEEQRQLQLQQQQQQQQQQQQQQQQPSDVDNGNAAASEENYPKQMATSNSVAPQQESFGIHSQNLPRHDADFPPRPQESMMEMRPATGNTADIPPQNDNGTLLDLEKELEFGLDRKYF

Variants of: B1
Settings: with slt2_yeast SLT2, Q00772

Row | Variant | effect of a mutation on the interaction
1 | MSKKQEYIAPIKYQNSLPVPQLPPKLLVYPESPETNADSSQLINSLYIKTNVTNLIQQDEDLGMPVDLMKFPGLLNKLDSKLLYGFDNVKLDKDDRILLRDPRIDRLTKTDISKVTFLRRTEYVSNTIAAHDNTSLKRKRRLDDGDSDDENLDVNHIISRVEGTFNKTDKWQHPVKKGVKMVKKWDLLPDAAFMDQVYFILKFMGSASLDTKEKKSLNTGIFRPVELEEDEWISMYATDHKDSAILENELEKGMDEMDDDSHEGKIYKFKRIRDYDMKQVAEKPMTELAIRLNDKDGIAYYKPLRSKIELRRRRVNDIIKPLVKEHDIDQLNVTLRNPSTKEANIRDKLRMKFDPINFATVDEEDDEDEEQPEDVKKESEGDSKTEGSEQEGENEKDEEIKQEKENEQDEENKQDENRAADTPETSDAVHTEQKPEEEKETLQEE [T191A;S193F] | decreasing interaction
